Measured values published in patent publication US20200247889A1 (published 2020).

T1: mouse TREM1 (mouse, UniProt Q9JKE2 21-230)
T1 chain: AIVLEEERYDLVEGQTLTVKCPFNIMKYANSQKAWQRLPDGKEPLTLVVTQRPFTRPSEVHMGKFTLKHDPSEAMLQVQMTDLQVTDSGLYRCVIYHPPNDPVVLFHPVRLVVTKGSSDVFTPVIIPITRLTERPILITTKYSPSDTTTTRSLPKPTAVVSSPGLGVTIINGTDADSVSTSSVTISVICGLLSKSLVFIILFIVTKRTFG

T2: cynomolgus TREM1 (cynomolgus, UniProt A0A2K5VHG8 21-233)
T2 chain: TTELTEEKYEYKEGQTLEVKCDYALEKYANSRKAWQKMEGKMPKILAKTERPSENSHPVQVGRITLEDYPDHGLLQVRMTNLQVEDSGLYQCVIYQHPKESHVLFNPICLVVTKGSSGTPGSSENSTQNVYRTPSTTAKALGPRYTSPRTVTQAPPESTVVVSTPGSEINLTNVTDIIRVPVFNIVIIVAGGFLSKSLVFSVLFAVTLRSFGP

B1: Pi-9772 (antibody, V domains shown)
VH: EVQLVESGGGLVQPGGSLRLSCAASGFDLSYSSMHWVRQAPGKGLEWVAYISPYSGYTSYADSVKGRFTISADTSKNTAYLQMNSLRAEDTAVYYCARHGSWSYGFSSGFDYWGQGTLVTVSS
VL: DIQMTQSPSSLSASVGDRVTITCRASQSVSSAVAWYQQKPGKAPKLLIYSASSLYSGVPSRFSGSRSGTDFTLTISSLQPEDFATYYCQQYAYYYPITFGQGTKVEIKR
B2: afucosylated Pi-4928 (antibody, V domains shown)
VH: QVQLKESGPGLVQPSQTLSLTCTVSGFSITSSNVYWFRQPPGKGLEWMGNIWGDGSTDYNSSLKSRLTLSRDTSKNQVFLKINSLQSEDTATYFCTRSWEYYFDHWGQGVVVTVSS
VL: DIVLTQSPALAVSPGQRATLSCRASQSVTLSNVNLMNWYQQKPGQQPKLLIYHASNLASGIPTRFSGSGSGTDFTLTIDPVQADDIAAYYCQQSGESPRTFGGGTKVELKR
modifications: afucosylated Fc glycan
B3: Pi-4928 (antibody, V domains shown)
VH: B2 VH
VL: B2 VL
B4: Pi-9067L (antibody, V domains shown)
VH: EVQLVESGGGLVQPGGSLRLSCAASGFDIYSYSIHWVRQAPGKGLEWVAYIYPSYGYTSYADSVKGRFTISADTSKNTAYLQMNSLRAEDTAVYYCARGAVAALDYWGQGTLVTVSS
VL: DIQMTQSPSSLSASVGDRVTITCRASQSVSSAVAWYQQKPGKAPKLLIYSASSLYSGVPSRFSGSRSGTDFTLTISSLQPEDFATYYCQQYGVSGYSLITFGQGTKVEIKR
B5: mAb0170 (antibody, V domains shown)
VH: EVQLVESGGGLVQPGGSLKLSCAASGFTFSTYAMHWVRQASGKGLEWVGRIRTKSSNYATYYAASVKGRFTISRDDSKNTAYLQMNSLKTEDTAVYYCTRDMGIRRQFAYWGQGTLVTVSS
VL: DIVLTQSPDSLAVSLGERATINCRASESVDTFDYSFLHWYQQKPGQPPKLLIYRASNLESGVPDRFSGSGSGTDFTLTISSLQAEDVAVYYCQQSNEDPYTFGQGTKLEIK
B6: afucosylated Pi-9772 (antibody, V domains shown)
VH: B1 VH
VL: B1 VL
modifications: afucosylated Fc glycan
B7: afucosylated Pi-9067L (antibody, V domains shown)
VH: B4 VH
VL: B4 VL
modifications: afucosylated Fc glycan
B8: Protein binding (receptor)
chain: T1 chain

Experiments:
mouse TREM1 [1] = target: T1, mouse TREM1; assay: cell binding; BALB/c splenocyte neutrophils
mouse TREM1 [2] = target: T1, mouse TREM1; assay: cell binding
mouse TREM1 [3] = target: T1, mouse TREM1; assay: SPR (Biacore); avid
cynomolgus TREM1 [4] = target: T2, cynomolgus TREM1; assay: cell binding
cynomolgus TREM1 [5] = target: T2, cynomolgus TREM1; assay: flow cytometry cell binding
9067s = assay: SPR

Binder | EC50 (mouse TREM1 [1]) | EC50 (mouse TREM1 [2]) | Kd (mouse TREM1 [3]) | EC50 (cynomolgus TREM1 [4]) | EC50 (cynomolgus TREM1 [5]) | Kd (9067s)
B1 | 6.83 nM | 2.85 nM | 0.15 nM | – | – | –
B2 | – | 2.32 nM | 0.11 nM | – | – | –
B3 | 1.36 nM | 1.41 nM | 0.11 nM | – | – | –
B4 | 0.98 nM | 1.85 nM | 0.09 nM | – | – | –
B5 | – | – | – | 0.13 nM | 0.13 nM | –
B6 | – | 6.35 nM | 0.71 nM | – | – | –
B7 | – | 2.9 nM | 0.15 nM | – | – | –
B8 | – | – | – | – | – | 0.87 nM
